Measured values as given in patent US20230250178A1 (published 2023).

Experiments:
murine CCR8 [1] = biological target: T1, murine CCR8 (mouse, UniProt P56484 1-353); experiment: FACS, murine iTregs
T1 construct: also called mCCR8; P56484_CCR8_MOUSE
T1 sequence: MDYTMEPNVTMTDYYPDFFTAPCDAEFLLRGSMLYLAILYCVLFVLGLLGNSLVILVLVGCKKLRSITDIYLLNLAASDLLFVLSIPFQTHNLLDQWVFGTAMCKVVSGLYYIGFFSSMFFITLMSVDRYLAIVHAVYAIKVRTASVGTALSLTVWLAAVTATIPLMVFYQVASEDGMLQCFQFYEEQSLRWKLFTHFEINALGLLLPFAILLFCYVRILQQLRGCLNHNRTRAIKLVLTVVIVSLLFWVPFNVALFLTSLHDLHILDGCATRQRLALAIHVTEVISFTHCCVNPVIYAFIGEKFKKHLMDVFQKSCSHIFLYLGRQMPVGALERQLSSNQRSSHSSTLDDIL

[2] = biological target: T2, TPP-19951, His6-tagged murine CCR8 TRD fused with human serum albumin (mouse; human, not fully specified); experiment: SPR, IgG captured, TRD-HSA analyte
T2 construct: non-sulfated TRD; also called CCR8-HSA fusion protein (mouse); not shown: human serum albumin (HSA), C-terminal fusion partner
T2 chain: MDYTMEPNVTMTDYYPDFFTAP
Description: IgGs were captured using anti-human Fc IgGs covalently amine coupled to a CM5 sensor chip. […] The respective CCR8-HSA fusion protein was used as analyte with a concentration range of 1.56-200 nM in multicycle kinetics mode. Obtained sensorgrams were fitted to a 1:1 Langmuir binding model.

human CCR8 = biological target: T3, human CCR8 (human, UniProt P51685 1-355); experiment: FACS
T3 construct: also called hCCR8; P51685_CCR8_HUMAN

cynomolgus CCR8 = biological target: T4, cynomolgus CCR8 (cynomolgus, UniProt O97665 1-356 (rhesus entry)); experiment: FACS
T4 construct: also called cynoCCR8; G7NYJ2_CCR8_MACFA
T4 sequence (O97665 other isoform, or with tags, fused parts or gaps): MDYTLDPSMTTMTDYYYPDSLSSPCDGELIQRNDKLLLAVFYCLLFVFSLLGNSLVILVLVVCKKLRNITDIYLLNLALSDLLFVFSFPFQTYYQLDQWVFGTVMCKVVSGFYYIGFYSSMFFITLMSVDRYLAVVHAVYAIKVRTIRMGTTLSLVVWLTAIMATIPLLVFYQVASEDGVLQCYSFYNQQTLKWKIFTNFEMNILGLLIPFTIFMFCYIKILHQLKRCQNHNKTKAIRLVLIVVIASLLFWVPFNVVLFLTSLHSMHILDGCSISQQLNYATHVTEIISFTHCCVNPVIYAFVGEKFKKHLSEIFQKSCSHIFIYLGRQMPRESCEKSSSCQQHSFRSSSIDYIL

HSA alone = biological target: T5, HSA alone (human, UniProt P02768 25-609); experiment: SPR, IgG captured
T5 construct: control analyte; also called human serum albumin

murine CCR8 [3] = biological target: T1, murine CCR8; experiment: FACS, CHO-mCCR8

- EC50 (murine CCR8 [1]): 13.2 nM
- Kd [2]: 520 nM
- koff [2]: 0.0011 s⁻¹
- kon [2]: 2200 M⁻¹ s⁻¹
- binding result (human CCR8): no binding
- binding result (cynomolgus CCR8): no binding
- binding result (HSA alone): no binding
- EC50 (murine CCR8 [3]): 3 nM
B1: TPP-14099 (antibody, human IgG1, lambda, V domains shown)
VH: EVQLLESGGGLVQPGGSLRLSCAASGFTFSDYGVHWVRQAPGKGLEWVSGVSWNGSRTHYADSVKGRFTISRDNSKNTLYLQMNSLRAEDTAVYYCVTRGAWGQGTLVTVSS
VL: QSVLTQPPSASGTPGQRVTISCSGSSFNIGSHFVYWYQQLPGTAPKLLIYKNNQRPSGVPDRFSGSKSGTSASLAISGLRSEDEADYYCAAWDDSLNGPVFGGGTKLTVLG
notes: anti-murine CCR8, human IgG1 lambda; also called 497A-M005-F02-hIgG1Lambda
